Source: US20140289906A1, “Compositions Having Dicamba Decarboxylase Activity and Methods of Use” (priority 2013, published 2014)

Experiment: 14C assay: 14CO2 capture from [14C]-carboxyl-labeled dicamba with IPTG-induced recombinant E. coli cells
Details: for Dicamba Decarboxylase Activity: IPTG-induced recombinant E. coli cells, 14CO2 from [14C]-carboxyl-labeled dicamba; for Enzymatic Detection level: dicamba decarboxylation activity

| Molecule | Dicamba Decarboxylase Activity | Enzymatic Detection level |
| --- | --- | --- |
| 99 (protein, listed as Ralstonia solanacearum) MAIIDCHGHFTTAPTALEDWRKRQIANLATPALGPSPDDLKISDDALTEAIRANQLRLMQARGSDLTIFSPRASFMAHHIGDFHTSATWAAICNALCHRVSQLFPDHFVGAAMLPQSPGVDIRTCIPELARCIVDYGFVGVNLNPDPSGGHWTSPPLSDPYWFPLYEKLVEYDVPAMIHVSTSCNACFHTTGAHYLNADTTAFMQVLTSDLFRRFPTLKFVIPHGGGAVPYHWGRFRGLAQELKTPPLQEHLLHNVFFDTCVYHQPGIDLLTRVIPVDNILFASEMIGAVRGIDPETGHPFDDTRRYIDQAHTLSAEDRHKIYEGNARRVYPRLDARLKARGR | No | No |
| 86 (protein, listed as Sphingopyxis alaskensis) MALGASVASREASAQMAKAPMRKIATEEAFATPELAKAWLEIARSEPNSSLDIPTGILSIFDNPRPGSNQDRFRRQLLDVDAERIRDMDEAGVDMQLLSVTIPGVQIFEPARAGELAVTTNDHLAAAIARRPTRFAGLACFAPHDPVQATREMERAVNALGLKGFIVNSHTQDLYLDDPRFAPVLEAAQSLDCPIYLHPRAPSNGMAAPFRDYSMGGSIWGFGVEAGTHAVRMILSGVFDRYPRLRIVLGHMGEALPFWMWRLDHMAARRAKDGRMKPLSLAPSEYFKRNFAVTTSGFESPDVLDLVIKVAGIENIMWAIDYPYESSRDAVTFIEGADLTASQRASIFHRNAVRHFRLS | Low | Low |
| 101 (protein, listed as Aquifex aeolicus) MAQKIALCITGASGVIYGIKLLQVLEELDFSVDLVISRNAKVVLKEEHSLTFEEVLKGLKNVRIHEENDFTSPLASGSRLVHYRGVYVVPCSTNTLSCIANGINKNLIHRVGEVALKERVPLVLLVREAPYNEIHLENMLKITRMGGVVVPASPAFYHKPQSIDDMINFVVGKLLDVLRIEHNLYKRWRG | No | No |
| 90 (protein, Pyrenophora tritici-repentis) MAATIDRVLYLGNATQRRYTSATVSVPRIFGKVALEEHVGTSIWAKYNLTPPANAVVGVLNRPPTLPNTLDTIARLDDINGRLSSMNHSGIGYVIVSLSSPGIQGVHDTALAIKFSTDINDELYLKYANAYPDKFAFFATVPMQDPVAAASELERAVSLLGAKGAAINGYTDIGPPGNSTTRYLDDPINAPFWSKVAALNVPIYLHPRAPPPSQQLVYNYPNNSLSAYPGLVTGGFAYGAETAVHALRLMLSGLFDTHPNIQIILGHAAEGLPFLIHRSDTQLAAEVPGTNGPYKRPLRYYLRNNFYATLSGVRRLSTTQCTLAEMGEERVLFSVDYPFQSNEDAADWFDGVEGMSVETKRKVARGNARRLFNLTVDLDERQIDGDFM | Low | Low |
| 94 (protein, listed as Bacillus thuringiensis) MANRGDSNMKSLVGVIMGSTSDWETMKYACDILDELNIPYEKKVVSAHRTPDYMFEYAETARERGLKVIIAGAGGAAHLPGMVAAKTNLPVIGVPVQSKALNGLDSLLSIVQMPGGVPVATVAIGKAGSTNAGLLAAQILGSFHDDIHDALELRREAIEKDVREGSELV | No | No |
| 96 (protein, Aspergillus nidulans) MAPLIVDVHTHVYPPAYMQMLRSRKTVPYVHDPSNNRDPRLIILSSDDDASIPLDQRGRPVDSSYWDINVKLSFMRQHGINCSVISLANPWLDFVEPAEAQMWAERINDDLEKTCATVNKAADPGNTLTLDQKETLFAFGALPLSAPSSESVVAEIKRLKTLEHLRGVIMGTSGLGKGLDDARLDPVWEALQETDMLMFLHPHYGLPEEAYGGPETTGRYGHVLPLALGFPLETTIAVTRMLLSGVFDRFPRLKILLAHSGGTLPFLAGRIESCILHERKFISGGGDVQGPQRSVWDVLKTNIYLDAVVYGKPGLEAAMTASGSDRLLFGTDHPFFPPLDSKDNSWPSVTTNYQAIHATFDTNSKTVADVLGGNAARILNLK | No | No |
| 97 (protein, listed as Sphingobium sp.) MAMMIIDCHGHYTVLPKAHDEWREQQKAAFKAGQPAPPYPEISDDEIRETIEANQLRLIKERGADMTIFSPRASAMAPHVGDQSVAVPWAQACNNLIARVVDLFPETFAGVCMLPQSPEADMTSSIAELERCVNELGFIGCNLNPDPGGGHFKHPPLTDRFWYPFYEKMVELDVPAMIHVSGSCNPAMHATGAYYLAADTIAFMQLLQGNLFADFPTLRFIIPHGGGAVPYHWGRFRGLADMLKQPSLDTLLMNNVFFDTCVYHQPGINLLADVIDNKNILFGSEMVGAVRGIDPTTGHYFDDTKRYIDALDISDQERHAIFEGNTRRVFPRLDAKLKARGL | No | No |
| 98 (protein, Xanthomonas campestris pv.) MAIIDCHGHYTTAPAAHDAFRKAQIAHHDDPQQPAPQYPHISDDALRESIEQHQLRLLRERGADMTIFSPRASTMAHHIGNEAVSQVWTQRCNDLIARVVQLYPHTFIGVCQLPQSPGVPISHSIAELERCVNELGFVGCNLNPDPSGGHWNGVPLTDRAWYPFFEKMVELDVPAMVHVSGSCNANFHATGAHYLNADTTAFMQFLEGDLFRDFPSLRFIIPHGGGAVPYHWGRFRGLADMLGKPPLATHVMRNVFFDTCVYHQPGIDLLFEVIDIDNILFGSEMVGAVRGIDPQTGHYFDDTKRYIDALTISDADKRKVFEGNARRVYPRLDAQLRARGL | No | No |
| 93 (protein, listed as Mucilaginibacter paludis) MAKYGKHITINKNMRIVTLEEHISFPEMADQIPKAALGSFGRSEAMQRIAPKLADITGERLKSMDANGISMQVLSVDSSGVNLLSPQQGPAFATQYNDLIANRIAGFEKRFTAFAHLPMTAPFAAADELERAVKEHHFCGAMIRGLTGDQFLDHPQFAPIFERAQKLDVPIYLHPGLPPKGVADIYYSGLPNYSGMAEALACYGWGWHSETALHVLRLLFSGIFDQYPKLKLVIGHMGEMLPMMMARSEKAFKPGNGGANVRTLTDTFRSQVYLTTSGFFTQPPLKIALDTFGIDHVMFSVDYPFSTNEMGIEFLNEIDLPDEEVARIAHGNADKLLNLKA | Low | Low |
| 91 (protein, listed as Botryotinia fuckeliana) MASFVCNFGKAALATLLLTPSISAADYTPQETVLNSGRPTFYDASTSIPGKIALEEHVGNDLLNGLYTVPYYPNTNEPQYSDSVYIADVGEKMLDIPSRIANMDAANISISVLTFGGPGIQGVFNATYATYAAGYVNDYLYKNYKNNANYTGRFEFWCSNALQEPSKAATELERCVKELGGVGSFVGGYTNNGGINGTANDIVYLDDPSMEPFLEKVVELDVPIYLHPRMPAPSQLLSVKGYEFLGSSPWGFSSETGAHALRLMVSGTLDKYPTLKIVLGHCGEGLPFFLPRIDQRLRHFKKELFNNTLTMEEYWLRNFYVTTAGVQDAGTLVDTIKRTGEDRVMFSVDYPFEDTVEIAGWFDRLEMNTLTKTKLAYENAKALLKLTCYVDAEKRPRIFNKHHVDDIIKHTHSPCIWTLFH | Low | Low |
| 7 (protein, listed as Legionella pneumophila) MAIVDFETHFITEACIDYLTQRQEVPKLVPELNGAYTMCFTPDVSLFHTSALMEELLSLNEQRLAIMDQAGVTIQVLSLTTINGIDSCPGDENKSTALAREVNDQLYSAIQRHPERFKGFASISPYDVKEGVKELERAISQLGFVGWLTHSNFGEDNYLDDKTYWPLLEAAEGLNIPIYLHPNVPIMREFGKYGFALGGSALGFEFDTALCLMRMILGGVFDAFPKLKIMLGHLGETMPFLMERLDHLYRIPDLKAYRPSIQRIPSEVLRQNVYITTSGRFFVPALRYVLEVMGEDRVLFASDYPMESLLDATRFIQDSDLSNQTKQKIFSINAKNLNLI | No | No |
